Results reported in the supplement of paper PMC9170038.

System: MS2 coat protein
Assay: apparent KD of MS2 coat protein; designed switch direction (-1 OFF switch, 1 ON switch): -1; higher = weaker reporter binding
How it was run: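 Designed RNA switches were transcribed on Illumina chips by stalled E. coli RNA polymerase and titrated with SNAP-549-labelled MS2 coat protein from 0.7 or 1.5 nM, doubling to 3 µM. Step length ran from 0.8–1.5 h at the lowest concentration to 10–20 min at the highest. The apparent KD is the median over clusters for each design, from curve-fitted normalised cluster fluorescence.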

[1] = input ligand: microRNA oligo, concentration not stated
[2] = Eterna round: R95, input ligand: FMN 200 uM
[3] = Eterna round: R95, input ligand: microRNA oligo, concentration not stated
[4] = Eterna round: R95, input ligand: none

| Sequence | apparent KD of MS2 coat protein (input ligand: FMN 200 uM) | apparent KD of MS2 coat protein [1] | apparent KD of MS2 coat protein (input ligand: none) | apparent KD of MS2 coat protein [2] | apparent KD of MS2 coat protein [3] | apparent KD of MS2 coat protein [4] |
| --- | --- | --- | --- | --- | --- | --- |
| AGUACUAUCACGAAAGUGAUAGUACAAUGAGCUUUUGAAACAUGAGGAUCACCCAUGUCCUCAUAAGCUCGUCUUAU [JL turnoff v2 52] (Eterna round: R96, puzzle: Sensor v2, turn-off variant 2) | 17.4 nM | 123 nM | 18.9 nM | – | – | – |
| AGUACUAUCACGAAAGUGAUAGUACAAUUGAGCUUUUGAACAUGAGGAUCACCCAUGUCCUCAUAAGCUCGUCUUAA [Mat - Sensor v2 - var 2 - Mod - D171] (Eterna round: R96, puzzle: Sensor v2, turn-off variant 2) | 28.7 nM | 496 nM | 30.5 nM | – | – | – |
| AGUACUGACACGUCGGUGUUAGUACAAUAAGCUUGUGAAACAUGAGGAUCACCCAUGUCCUCAUAAGCUCGUCUUAU [salish99_TOv2_r3_081] (Eterna round: R96, puzzle: Sensor v3, turn-off variant 2) | 15.1 nM | 481 nM | 17.2 nM | – | – | – |
| AGUACUGACACGUCGGUGUUAGUACAAUAAGCUUGUGAAACAUGAGGAUCACCCAUGUCCUCAUAAGCUCGUCUUAU [salish99_TOv2_r3_081] (puzzle: Sensor v3, turn-off variant 2) | – | – | – | 17 nM | 659 nM | 15 nM |
| AGUACUGACACGUUGGUGUUAGUACAAUAAGCUUGUGAUACAUGAGGAUCACCCAUGUCCUCAUAAGCUCGUCUUAU [salish99_TOv2_r2_093] (puzzle: Sensor v3, turn-off variant 2) | – | – | – | 26.1 nM | 881 nM | 21.1 nM |
| AGUACUGACACGUUGGUGUUAGUACAAUAAGCUUGUGUUACAUGAGGAUCACCCAUGUCCUCAUAAGCUCGUCUUAU [salish99_TOv2_r2_095] (puzzle: Sensor v3, turn-off variant 2) | – | – | – | 117 nM | 38.4 nM | 138 nM |
| AGUACUUACACGAAAGUGUUAGUACAAUAAGCUUGUGAAACAUGAGGAUCACCCAUGUCCUCAUAAGCUCGUCUUAU [salish99_TOv2_r3_016] (puzzle: Sensor v3, turn-off variant 2) | – | – | – | 18.6 nM | 615 nM | 17.1 nM |
| AGUAGAUCUACGCUUGCGUGGAUCUGCAAUGCAAGUGUAACAUGAGGAUCACCCAUGUCCUCAUUUGCUCGUCUUAU [JL turnoff v2 99.03] (puzzle: Sensor v3, turn-off variant 2) | – | – | – | 46.8 nM | 275 nM | 48.8 nM |
| AGUAGAUCUACGCUUGCGUGGAUCUGCAAUGCAGGUGUUACAUGAGGAUCACCCAUGUCCUCAUUUGCUCGUCUUAG [JL turnoff v2 99.06] (puzzle: Sensor v3, turn-off variant 2) | – | – | – | 97.4 nM | 663 nM | 91.9 nM |
| AGUAGAUCUACGCUUGCGUGGAUCUGCAAUGCAGGUGUUACAUGAGGAUCACCCAUGUCCUCGUUUGCUCGUCUUAU [JL turnoff v2 99.12] (puzzle: Sensor v3, turn-off variant 2) | – | – | – | 209 nM | 664 nM | 222 nM |
| AGUAGAUCUACGCUUGCGUGGAUCUGCUAUGCAGGUGUUACAUGAGGAUCACCCAUGUCCUCGUUUGCUCGUCUUAU [JL turnoff v2 99.13] (puzzle: Sensor v3, turn-off variant 2) | – | – | – | 333 nM | 693 nM | 448 nM |
| AGUAGGAGAGGAUAUACAUGAAGUCGAAAGACUUCAACUCAACAUGAGGAUCACCCAUGUAGAAGGCUCCUACA [Omei Ex2 BD A6] (Eterna round: R97, puzzle: Exclusion 2) | 132 nM | – | 25.8 nM | – | – | – |
| AGUAGGUCUACCUUGGUGGAUCUGCAUUAUUCAAGUGUUACAUGAGGAUCACCCAUGUCCUCAUUUGCUCGUCUUAU [JL turnoff v2 99.25] (puzzle: Sensor v3, turn-off variant 2) | – | – | – | 385 nM | 45.7 nM | 417 nM |
| AGUAGUAGUAUCCGAUCCGACAUGAGGAUCACCCAUGUAGCUAGACGUGCACGCGAUGCUCGUCAGACUACCAGAUG [salish99_TOv1_r3_037] (puzzle: Sensor v3, turn-off variant 1) | – | – | – | 102 nM | 100 nM | 74.1 nM |
| AGUAGUAGUAUCCGAUCCUACAUGAGGAUCACCCAUGUAGCUGGACGUGCACGCGAUGCUCGUCAGACUACCAGAUG [salish99_TOv1_r3_044] (puzzle: Sensor v3, turn-off variant 1) | – | – | – | 181 nM | 131 nM | 150 nM |
| AGUAGUAGUUUCCGUUCUUACAUGAGGAUCACCCAUGUUUCUUGACGUGCACGCGAUGCUCGUCAGACUACCAGAUG [salish99_TOv1_r3_056] (puzzle: Sensor v3, turn-off variant 1) | – | – | – | 39.3 nM | 51.3 nM | 56.9 nM |
| AGUAUGCGGCAGGAUAUCCAUCCGCGGUAAGGUGGAGAAGGGCUGACAUGAGGAUCACCCAUGUGCGUCCUGUA [salish99_ex6_r4_028] (Eterna round: R97, puzzle: Exclusion 6) | 31.9 nM | – | 19.9 nM | – | – | – |
| AGUAUGUGAGGAUAUUUUUCGUCCGGUAGGAUACUACAGAGAAAGAAGGCACAUGAGGAUCACCCAUGUGAGAC [Eternabot (L1) Solution 55] (Eterna round: R97, puzzle: Exclusion 4) | 48.3 nM | – | 20.1 nM | – | – | – |
| AGUCCAGACGGACCCUCUAACAUGAGGAUCACCCAUGUAGCGGAGGAUAUCCGAAUUUGGGCGACGGAGAAGGCCGUUGCAGGG [Edsosobi] (Eterna round: R96, puzzle: Exclusion NG 3) | 21.3 nM | 27 nM | 27.5 nM | – | – | – |
| AGUCCUAGUCAAGGAUAUACACCGAAGAAAUACGUAGAAGGUGACAUGAGGAUCACCCAUGUAGGGCCUCUGGAAACAGAGGAA [Indiinbi] (Eterna round: R96, puzzle: Exclusion NG 1) | 208 nM | 107 nM | 143 nM | – | – | – |
| AGUCCUGGAGUUAGGAUAUGGUGUAUCGCUGCGCUUCAGAAGGGACUUGAGGAUCACCCAAGUAGCCGUGAGGG [salish99_bmod_ex4_r4_007] (Eterna round: R97, puzzle: Brourd's mod of Exclusion 4) | 49.9 nM | – | 60.2 nM | – | – | – |
| AGUCGAAAGACCAACAUGGACAUGAGGAUCACCCAUGUACAAGCCUUUUGCUCGUCACUAUCGUCAAAAGACGAUAG [Omei Mir Offv1 A1] (Eterna round: R97, puzzle: Sensor, turn-off variant 1) | 34.5 nM | – | 32.8 nM | – | – | – |
| AGUCGGCGAGGAUAUACAUGAGGAUCACCCAUGUGAUAGAGUGCACGCGUACGUGUACGUAGAAGGCGCUGACA [Mat - Exclusion 3 - Mod of JL D95] (puzzle: Exclusion 3) | – | – | – | – | 12.6 nM | – |
| AGUCGGUCAGGAUAUGCAAACGUAGACAUGAGGAUCACCCAUGUAACGUGGGCCUGGUUUGUAGAAGGGACGAGCA [EX5 #85] (Eterna round: R97, puzzle: Exclusion 5) | 38.2 nM | – | 28.2 nM | – | – | – |
| AGUCGGUCAGGAUAUGCAAUUGUGGACAUGAGGAUCACCCAUGUAACGUGGGCUUGGUUUGUAGAAGGGACGUGCA [EX5 #90] (Eterna round: R97, puzzle: Exclusion 5) | 378 nM | – | 626 nM | – | – | – |
| AGUCGGUCAGGAUAUGCAGACGUAGACAUGAGGAUCACCCAUGUAACGUGGGCCUGGUUUGUAGAAGGGACGAGCA [EX5 #84] (Eterna round: R97, puzzle: Exclusion 5) | 47.9 nM | – | 42.4 nM | – | – | – |
| AGUGCUGGCGCGUCGGUGUUGGUGCAAUAAGCUUGUGAAACAUGAGGAUCACCCAUGUCCUCAUAAGCUCGUCUUAU [salish99_TOv2_r2_085] (Eterna round: R96, puzzle: Sensor v3, turn-off variant 2) | 14.9 nM | 375 nM | 17.9 nM | – | – | – |
| AGUGCUGGCGCGUCGGUGUUGGUGCAAUAAGCUUGUGAAACAUGAGGAUCACCCAUGUCCUCAUAAGCUCGUCUUAU [salish99_TOv2_r2_085] (puzzle: Sensor v3, turn-off variant 2) | – | – | – | 17.1 nM | 732 nM | 15.8 nM |
